Values quoted from earlier work as cited in paper PMC4454452.

How the values were obtained:
[1] = molecular target: Histone H3 peptide (H3K9me3) (Homo sapiens) (UniProt P68431)
[2] = molecular target: Histone H3 peptide (H3K9me0) (Homo sapiens) (UniProt P68431)

Chain of CHD4 PHD2 (Q14839 449-496): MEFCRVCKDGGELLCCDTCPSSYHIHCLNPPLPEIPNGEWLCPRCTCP

CHD4 PHD2 (from UniProt Q14839)
Kd [1]: 0.9 µM
Kd [2]: 19 µM
